Test results as given in publication PMC5083789.

Target: Pure recombinant PlmA (Synechococcus elongatus PCC7942)
Assay: SEC; 0.1 mg pure PlmA in 0.1 ml on Superdex 200 10/300 GL, 0.3 ml/min, 50 mM Hepes pH 7.5, 0.5 M NaCl, 1 mM 2-mercaptoethanol; calibrated with protein standards

## Pure recombinant PlmA (natural protein)
  stoichiometry N: 2
